Key:
[1] = biological target: T1, wild-type human alpha-synuclein (human, UniProt P37840 1-140); assay: ELISA on alpha-synuclein, OD against ng/mL of antibody
[2] = biological target: T1, wild-type human alpha-synuclein; assay: SPR (Biacore), antibody captured on anti-human IgG chip, alpha-synuclein flowed over, 1:1 model global fit
Experimental: An anti-human IgG CMS Biacore chip was prepared following the protocol supplied by GE Healthcare.
Data were collected and double reference subtracted to account for drift and a small amount of nonspecific binding. The data were analyzed using Biacore evaluation software using a 1:1 model and a global fit.

binding result [1]	Kd [2] [µM]	Binder
no binding (tested: 1000 ng/mL)	–	humanized 5C1 antibody version H1L1 (antibody, V domains shown, Only variable regions are tied to this version) VH: QVQLVQSGAELKKPGSSVKVSCKASGYTFTNYWMNWVRQAPGQGLEWIGATNPNNGYTDYNQRFKDRATLTADKSTNTAYMELSSLRSEDTAVYYCARGGHLAYWGQGTLVTVSS VL: DVVMTQSPLSLSVSPGEPASISCRSSQSLFHSKGNTYLHWYLQKPGQSPKLLINRVSNRFSGVPDRFSGSGSGTDFTLKISRVEAEDVGVYFCSQSAHVPWTFGGGTKVEIK
–	0.601	humanized 5C1 antibody version H4L4 (antibody, V domains shown, Only variable regions are tied to this version; also called h5C1_H4L4) VH: QVQLVQSGAELKKPGSSVKVSCKASGYTFTNYWMNWVRQAPGQGLEWIGATNPNNGYTDYNQRFKDRATLTADKSTNTAYMELSSLRSEDTAVYYCASGGHLAYWGQGTLVTVSS VL: DIVMTQSPLSLSVSPGEPASISCRSSQSLFHSKGNTYLHWYLQKPGQSPQLLIYRVSNRFSGVPDRFSGSGSGTDFTLKISRVEAEDVGVYYCSQSAHVPWTFGGGTKVEIK
–	1.24	humanized 5C1 antibody version H3L4 (antibody, V domains shown, Only variable regions are tied to this version; also called h5C1_H3L4) VH: QVQLVQSGAELKKPGSSVKVSCKASGYTFTNYWMNWVRQAPGQGLEWIGATNPNNGYTDYNQRFKDRATLTADKSTNTAYMELSSLRSEDTAVYFCASGGHLAYWGQGTLVTVSS VL: DIVMTQSPLSLSVSPGEPASISCRSSQSLFHSKGNTYLHWYLQKPGQSPQLLIYRVSNRFSGVPDRFSGSGSGTDFTLKISRVEAEDVGVYYCSQSAHVPWTFGGGTKVEIK
–	1.06	humanized 5C1 antibody version H5L4 (antibody, V domains shown, Only variable regions are tied to this version; also called h5C1_H5L4) VH: QVQLVQSGAELKKPGSSVKVSCKASGYTFTNYWMNWVRQAPGQGLEWIGATNPNNGYTDYNQRFKDRVTITADKSTNTAYMELSSLRSEDTAVYYCASGGHLAYWGQGTLVTVSS VL: DIVMTQSPLSLSVSPGEPASISCRSSQSLFHSKGNTYLHWYLQKPGQSPQLLIYRVSNRFSGVPDRFSGSGSGTDFTLKISRVEAEDVGVYYCSQSAHVPWTFGGGTKVEIK

Reference: patent US20170174777A1 (PROTHENA BIOSCIENCE, published 2017)
